Assay results from US20140287419A1, “Compositions Having Dicamba Decarboxylase Activity and Methods of Use” (priority 2013, published 2014).
Numbering of substitutions follows the chain as printed. Numbers in names are those of the source.

B1: N61A: point mutation N61A of SEQ ID NO:109 (protein)
chain: MAQGKVALEEHFAIPETLQDSAGFVPGDYWKELQHRLLDIQDTRLKLMDAHGIETMILSLAAPAVQAIPDRRKAIEIARRANDVLAEECAKRPDRFLAFAALPLQDPDAATEELQRCVNDLGFVGALVNGFSQEGDGQTPLYYDLPQYRPFWGEVEKLDVPFYLHPRNPLPQDSRIYDGHPWLLGPTWAFAQETAVHALRLMASGLFDEHPRLNIILGHMGEGLPYMMWRIDHRVAWVKLPPRYPAKRRFMDYFNENFHITTSGNFRTQTLIDAILEIGADRILFSTDWPFENIDHASDWFNATSIAEADRVKIGRTNARRLFKLDGA
modifications: Dicamba decarboxylase variant clone DC.4.032
B2: 109 (protein)
chain: B1 chain with A61N
modifications: Dicamba decarboxylase variant clone DC.4.032

Experiments:
[1] = Saturation mutagenesis of SEQ ID NO:109, dicamba decarboxylation activity of point mutants
[2] = Enzyme kinetic characterization (kcat, KM, kcat/KM) by PEPC/MDH coupled enzyme assay or GC/MS measurement of 2,5-DCP
[3] = Dicamba decarboxylation activity of computationally designed protein variants
[4] = 14C assay with IPTG-induced recombinant E. coli cells (14CO2 capture from [14C]-carboxyl-labeled dicamba); settings: dicamba decarboxylation activity of the protein of the given SEQ ID NO
[5] = purified protein, substrate dicamba

Molecule	Average Activity (Fold of SEQ ID NO: 109) ([1]; dicamba decarboxylation activity of point mutants of SEQ ID NO: 109 (NNK saturation mutagenesis), relative to the unchanged template)	Average Activity (Fold of SEQ ID NO: 109) ([1]; dicamba decarboxylation activity of single point mutants of SEQ ID NO:109, relative to unchanged template)	KM compared with template SEQ ID NO:109 ([2]; FIG. 6)	kcat compared with template SEQ ID NO:109 ([2]; FIG. 6) [fold]	Dicamba Decarboxylation activity ([3]; Table 5, designed variants with improved activity)	Percent Activity Improvement Over Parent (%) ([3]; parent SEQ ID NO:1 or SEQ ID NO:41 listed as 100)	Enzymatic Detection level [4]	Km [2, 5] [mM]	kcat [2, 5] [s⁻¹]
B1	2.9 Fold of SEQ ID NO: 109	2.9 Fold of SEQ ID NO: 109	unchanged	17					
B2					Yes	234	High	4.66	0.000533
